# Measurements published in publication PMC9482650, “Quantitative fragmentomics allow affinity mapping of interactomes” (Nature Communications, 2022).
# T1: CARD11, Q9BXL7
# T1 sequence (Q9BXL7 662-765, limits assumed, looked up): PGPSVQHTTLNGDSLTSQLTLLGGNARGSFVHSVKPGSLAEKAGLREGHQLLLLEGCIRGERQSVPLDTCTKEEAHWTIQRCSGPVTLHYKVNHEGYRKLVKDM
# T2: PDZD7_3, Q9H5P4
# T2 sequence (Q9H5P4 857-944, limits assumed, looked up): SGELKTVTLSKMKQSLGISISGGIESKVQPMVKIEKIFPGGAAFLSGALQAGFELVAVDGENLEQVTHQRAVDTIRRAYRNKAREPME
# T3: DLG3_1, Q92796
# T3 sequence (Q92796 125-227, limits assumed, looked up): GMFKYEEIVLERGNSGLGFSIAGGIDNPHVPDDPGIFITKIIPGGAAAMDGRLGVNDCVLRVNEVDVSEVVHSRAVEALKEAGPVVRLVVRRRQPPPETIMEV
# T4: SHANK1, Q9Y566
# T4 sequence (Q9Y566 658-767, limits assumed, looked up): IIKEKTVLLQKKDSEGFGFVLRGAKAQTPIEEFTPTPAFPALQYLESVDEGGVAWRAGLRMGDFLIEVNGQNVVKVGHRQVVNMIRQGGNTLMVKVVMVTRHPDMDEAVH
# T5: SNTB1, Q13884
# T5 sequence (Q13884 107-205, limits assumed, looked up): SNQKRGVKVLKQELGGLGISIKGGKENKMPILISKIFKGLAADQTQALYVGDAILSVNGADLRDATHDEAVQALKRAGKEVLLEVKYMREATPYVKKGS
# T6: SYNJ2BP, P57105
# T6 sequence (P57105 8-110, limits assumed, looked up): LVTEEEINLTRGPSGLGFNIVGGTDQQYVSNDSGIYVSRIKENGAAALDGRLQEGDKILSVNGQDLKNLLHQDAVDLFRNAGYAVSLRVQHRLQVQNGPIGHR
# T7: APBA2_2, Q99767
# T7 sequence (Q99767 654-744, limits assumed, looked up): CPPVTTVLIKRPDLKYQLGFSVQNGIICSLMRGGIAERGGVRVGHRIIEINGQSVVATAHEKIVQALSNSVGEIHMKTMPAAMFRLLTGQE
# T8: SNTA1, Q13424
# T8 sequence (Q13424 82-180, limits assumed, looked up): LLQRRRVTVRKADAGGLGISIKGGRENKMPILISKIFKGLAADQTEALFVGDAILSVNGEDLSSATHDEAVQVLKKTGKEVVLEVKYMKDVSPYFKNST
# T9: DVL3, Q92997
# T9 sequence (Q92997 244-331, limits assumed, looked up): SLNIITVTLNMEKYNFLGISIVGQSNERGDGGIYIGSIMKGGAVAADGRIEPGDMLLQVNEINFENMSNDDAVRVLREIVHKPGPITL
# T10: SIPA1L2, Q9P2F8
# T10 sequence (Q9P2F8 945-1036, limits assumed, looked up): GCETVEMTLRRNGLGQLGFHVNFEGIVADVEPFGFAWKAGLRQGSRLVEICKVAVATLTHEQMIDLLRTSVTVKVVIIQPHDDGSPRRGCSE
# T11: TJP3_3, O95049
# T11 sequence (O95049 375-456, limits assumed, looked up): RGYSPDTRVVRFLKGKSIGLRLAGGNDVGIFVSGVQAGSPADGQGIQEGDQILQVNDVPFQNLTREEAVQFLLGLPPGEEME
# T12: GRIP1_5, Q9Y3R0
# T12 sequence (Q9Y3R0 568-668, limits assumed, looked up): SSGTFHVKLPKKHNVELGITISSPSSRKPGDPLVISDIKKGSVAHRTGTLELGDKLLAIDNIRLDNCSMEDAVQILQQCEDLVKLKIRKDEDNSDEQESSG
# T13: APBA3_1, O96018
# T13 sequence (O96018 389-490, limits assumed, looked up): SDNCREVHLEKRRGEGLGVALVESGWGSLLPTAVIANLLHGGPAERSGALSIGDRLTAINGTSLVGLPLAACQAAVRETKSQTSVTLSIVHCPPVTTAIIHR
# Target: T1, CARD11, Q9BXL7
# Assay: holdup assay
# Parameters: key: below the threshold = too weak to quantify, mostly under pKd 3.1 to 4
# Settings: plain residues with an end cap or a label only (N-terminal biotin on a linker: ado-ado)
row,pKd,Binder
1,below the threshold,"YRLAQESGLV [ABCC6, O95255]"

# Target: T2, PDZD7_3, Q9H5P4
# Assay: holdup assay
# Parameters: key: below the threshold = too weak to quantify, mostly under pKd 3.1 to 4
# Settings: plain residues with an end cap or a label only (N-terminal biotin on a linker: ado-ado)
row,pKd,Binder
1,4.01,"YRLAQESGLV [ABCC6, O95255]"

# Target: T3, DLG3_1, Q92796
# Assay: holdup assay
# Parameters: key: below the threshold = too weak to quantify, mostly under pKd 3.1 to 4
# Settings: plain residues with an end cap or a label only (N-terminal biotin on a linker: ado-ado)
row,pKd,Binder
1,below the threshold,"YRLAQESGLV [ABCC6, O95255]"

# Target: T4, SHANK1, Q9Y566
# Assay: holdup assay
# Parameters: key: below the threshold = too weak to quantify, mostly under pKd 3.1 to 4
# Settings: plain residues with an end cap or a label only (N-terminal biotin on a linker: ado-ado)
row,pKd,Binder
1,below the threshold,"YRLAQESGLV [ABCC6, O95255]"

# Target: T5, SNTB1, Q13884
# Assay: holdup assay
# Parameters: key: below the threshold = too weak to quantify, mostly under pKd 3.1 to 4
# Settings: plain residues with an end cap or a label only (N-terminal biotin on a linker: ado-ado)
row,pKd,Binder
1,3.57,"YRLAQESGLV [ABCC6, O95255]"

# Target: T6, SYNJ2BP, P57105
# Assay: holdup assay
# Parameters: key: below the threshold = too weak to quantify, mostly under pKd 3.1 to 4
# Settings: plain residues with an end cap or a label only (N-terminal biotin on a linker: ado-ado)
row,pKd,Binder
1,below the threshold,"YRLAQESGLV [ABCC6, O95255]"

# Target: MAGI2_6, Q86UL8
# Sequence (Q86UL8 1141-1229): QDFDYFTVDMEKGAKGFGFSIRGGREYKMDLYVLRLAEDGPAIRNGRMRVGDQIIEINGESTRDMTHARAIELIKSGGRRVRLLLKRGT
# Assay: holdup assay
# Parameters: key: below the threshold = too weak to quantify, mostly under pKd 3.1 to 4
# Settings: plain residues with an end cap or a label only (N-terminal biotin on a linker: ado-ado)
row,pKd,Binder
1,below the threshold,"YRLAQESGLV [ABCC6, O95255]"

# Target: T7, APBA2_2, Q99767
# Assay: holdup assay
# Parameters: key: below the threshold = too weak to quantify, mostly under pKd 3.1 to 4
# Settings: plain residues with an end cap or a label only (N-terminal biotin on a linker: ado-ado)
row,pKd,Binder
1,below the threshold,"YRLAQESGLV [ABCC6, O95255]"

# Target: MAGI2_5, Q86UL8
# Sequence (Q86UL8 915-1017): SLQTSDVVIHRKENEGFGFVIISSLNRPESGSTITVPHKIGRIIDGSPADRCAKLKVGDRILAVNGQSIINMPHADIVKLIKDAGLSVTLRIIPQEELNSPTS
# Assay: holdup assay
# Parameters: key: below the threshold = too weak to quantify, mostly under pKd 3.1 to 4
# Settings: plain residues with an end cap or a label only (N-terminal biotin on a linker: ado-ado)
row,pKd,Binder
1,3.61,"YRLAQESGLV [ABCC6, O95255]"

# Target: T8, SNTA1, Q13424
# Assay: holdup assay
# Parameters: key: below the threshold = too weak to quantify, mostly under pKd 3.1 to 4
# Settings: plain residues with an end cap or a label only (N-terminal biotin on a linker: ado-ado)
row,pKd,Binder
1,below the threshold,"YRLAQESGLV [ABCC6, O95255]"

# Target: GRID2IP_2, A4D2P6
# Sequence (A4D2P6 272-370): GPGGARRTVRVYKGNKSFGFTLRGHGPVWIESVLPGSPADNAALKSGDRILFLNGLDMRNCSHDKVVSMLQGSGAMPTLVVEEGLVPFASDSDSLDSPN
# Assay: holdup assay
# Parameters: key: below the threshold = too weak to quantify, mostly under pKd 3.1 to 4
# Settings: plain residues with an end cap or a label only (N-terminal biotin on a linker: ado-ado)
row,pKd,Binder
1,below the threshold,"YRLAQESGLV [ABCC6, O95255]"

# Target: PDLIM1, O00151
# Sequence (O00151 1-87): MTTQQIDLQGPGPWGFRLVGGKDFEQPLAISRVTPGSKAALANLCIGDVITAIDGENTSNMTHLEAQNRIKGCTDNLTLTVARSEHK
# Assay: holdup assay
# Parameters: key: below the threshold = too weak to quantify, mostly under pKd 3.1 to 4
# Settings: plain residues with an end cap or a label only (N-terminal biotin on a linker: ado-ado)
row,pKd,Binder
1,below the threshold,"YRLAQESGLV [ABCC6, O95255]"

# Target: Inadl_4, Q8NI35
# Sequence (Q8NI35 547-651): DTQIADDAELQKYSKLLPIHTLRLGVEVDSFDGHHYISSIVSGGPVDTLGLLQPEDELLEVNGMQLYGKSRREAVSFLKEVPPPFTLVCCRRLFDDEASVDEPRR
# Assay: holdup assay
# Parameters: key: below the threshold = too weak to quantify, mostly under pKd 3.1 to 4
# Settings: plain residues with an end cap or a label only (N-terminal biotin on a linker: ado-ado)
row,pKd,Binder
1,below the threshold,"YRLAQESGLV [ABCC6, O95255]"

# Target: DLG5_1, Q8TDM6
# Sequence (Q8TDM6 617-713): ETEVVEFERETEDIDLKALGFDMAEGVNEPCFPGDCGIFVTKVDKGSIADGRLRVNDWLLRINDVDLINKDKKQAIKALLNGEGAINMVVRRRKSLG
# Assay: holdup assay
# Parameters: key: below the threshold = too weak to quantify, mostly under pKd 3.1 to 4
# Settings: plain residues with an end cap or a label only (N-terminal biotin on a linker: ado-ado)
row,pKd,Binder
1,below the threshold,"YRLAQESGLV [ABCC6, O95255]"

# Target: T9, DVL3, Q92997
# Assay: holdup assay
# Parameters: key: below the threshold = too weak to quantify, mostly under pKd 3.1 to 4
# Settings: plain residues with an end cap or a label only (N-terminal biotin on a linker: ado-ado)
row,pKd,Binder
1,below the threshold,"YRLAQESGLV [ABCC6, O95255]"

# Target: T10, SIPA1L2, Q9P2F8
# Assay: holdup assay
# Parameters: key: below the threshold = too weak to quantify, mostly under pKd 3.1 to 4
# Settings: plain residues with an end cap or a label only (N-terminal biotin on a linker: ado-ado)
row,pKd,Binder
1,below the threshold,"YRLAQESGLV [ABCC6, O95255]"

# Target: T11, TJP3_3, O95049
# Assay: holdup assay
# Parameters: key: below the threshold = too weak to quantify, mostly under pKd 3.1 to 4
# Settings: plain residues with an end cap or a label only (N-terminal biotin on a linker: ado-ado)
row,pKd,Binder
1,below the threshold,"YRLAQESGLV [ABCC6, O95255]"

# Target: SCRIB_2, Q14160
# Sequence (Q14160 857-960): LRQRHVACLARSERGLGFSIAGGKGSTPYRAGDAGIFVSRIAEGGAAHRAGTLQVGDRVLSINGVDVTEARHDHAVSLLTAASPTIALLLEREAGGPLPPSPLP
# Assay: holdup assay
# Parameters: key: below the threshold = too weak to quantify, mostly under pKd 3.1 to 4
# Settings: plain residues with an end cap or a label only (N-terminal biotin on a linker: ado-ado)
row,pKd,Binder
1,below the threshold,"YRLAQESGLV [ABCC6, O95255]"

# Target: HTRA1, Q92743
# Sequence (Q92743 360-477): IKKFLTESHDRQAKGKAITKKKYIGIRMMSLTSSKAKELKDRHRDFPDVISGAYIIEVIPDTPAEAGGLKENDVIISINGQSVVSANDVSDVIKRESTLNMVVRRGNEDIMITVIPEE
# Assay: holdup assay
# Parameters: key: below the threshold = too weak to quantify, mostly under pKd 3.1 to 4
# Settings: plain residues with an end cap or a label only (N-terminal biotin on a linker: ado-ado)
row,pKd,Binder
1,3.98,"YRLAQESGLV [ABCC6, O95255]"

# Target: T12, GRIP1_5, Q9Y3R0
# Assay: holdup assay
# Parameters: key: below the threshold = too weak to quantify, mostly under pKd 3.1 to 4
# Settings: plain residues with an end cap or a label only (N-terminal biotin on a linker: ado-ado)
row,pKd,Binder
1,below the threshold,"YRLAQESGLV [ABCC6, O95255]"

# Target: MAST1, Q9Y2H9
# Sequence (Q9Y2H9 962-1065): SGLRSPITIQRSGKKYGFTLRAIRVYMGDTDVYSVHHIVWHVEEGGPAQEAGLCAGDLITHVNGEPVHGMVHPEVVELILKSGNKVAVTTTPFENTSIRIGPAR
# Assay: holdup assay
# Parameters: key: below the threshold = too weak to quantify, mostly under pKd 3.1 to 4
# Settings: plain residues with an end cap or a label only (N-terminal biotin on a linker: ado-ado)
row,pKd,Binder
1,3.59,"YRLAQESGLV [ABCC6, O95255]"

# Target: Inadl_6, Q8NI35
# Sequence (Q8NI35 1058-1167): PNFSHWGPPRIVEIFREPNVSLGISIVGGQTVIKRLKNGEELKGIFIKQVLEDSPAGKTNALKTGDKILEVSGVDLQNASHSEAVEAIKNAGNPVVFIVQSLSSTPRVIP
# Assay: holdup assay
# Parameters: key: below the threshold = too weak to quantify, mostly under pKd 3.1 to 4
# Settings: plain residues with an end cap or a label only (N-terminal biotin on a linker: ado-ado)
row,pKd,Binder
1,below the threshold,"YRLAQESGLV [ABCC6, O95255]"

# Target: T13, APBA3_1, O96018
# Assay: holdup assay
# Parameters: key: below the threshold = too weak to quantify, mostly under pKd 3.1 to 4
# Settings: plain residues with an end cap or a label only (N-terminal biotin on a linker: ado-ado)
row,pKd,Binder
1,below the threshold,"YRLAQESGLV [ABCC6, O95255]"

# Target: DLG1_1, Q12959
# Assay: holdup assay
# Parameters: key: below the threshold = too weak to quantify, mostly under pKd 3.1 to 4
# Settings: plain residues with an end cap or a label only (N-terminal biotin on a linker: ado-ado)
row,pKd,Binder
1,below the threshold,"YRLAQESGLV [ABCC6, O95255]"

# Target: GRIP2_4, Q9C0E4
# Sequence (Q9C0E4 446-548): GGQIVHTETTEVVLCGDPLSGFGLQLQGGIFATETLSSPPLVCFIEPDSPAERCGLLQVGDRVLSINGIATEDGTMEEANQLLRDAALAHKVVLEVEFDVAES
# Assay: holdup assay
# Parameters: key: below the threshold = too weak to quantify, mostly under pKd 3.1 to 4
# Settings: plain residues with an end cap or a label only (N-terminal biotin on a linker: ado-ado)
row,pKd,Binder
1,below the threshold,"YRLAQESGLV [ABCC6, O95255]"
